Key:
hIL-17A [1] = target: T1, hIL-17A (human, UniProt Q16552 24-155); assay: ELISA of cleared E. coli lysate on plate-captured hIL-17A, detected with biotinylated anti-hIL-17RA and streptavidin-HRP, OD 450 nm; concentration not given
T1 construct: Bought protein
Experimental: (§1) ELISA plates (Griener Microlon 96W) were incubated with 100 μl of 0.5 μg/ml goat α-hIL-17A antibodies (R&D Systems) for 1 hour, washed with PBS supplemented with 0.05% Tween-80 (PBST) and 100 μl of 0.35 μg/ml hIL-17A (R&D Systems or ProSpec Tany TechnoGene Ltd.) were added to the plate for an additional 1 hour. The plates were then washed with PBST and blocked by incubation with 100 μl of PBS supplemented with 3% skim milk for 1 hour. Following blocking, the plates were washed and incubated with 100 μl of the cleared lysate, cell media or purified protein generated (described above) at appropriate dilutions and shaken for 1 hour. hIL-17RA (R&D Systems) was applied at a concentration of 6.25 μg/ml as a positive control, and PBS supplemented with 1% BSA as a negative control. Plates were then washed with PBST, incubated with 100 μl of 0.05 μg/ml goat α-hIL-17RA antibodies (R&D Systems) followed by a secondary peroxidase-conjugated streptavidin (Jackson, 1:10000 dilution). Finally, 100 μl of the horseradish peroxidase (HRP) chromogenic 3,3′,5,5′-tetramethylbenzidine (TMB) substrate solution (Dako) were added. The reaction was stopped by the addition of 1 M sulfuric acid and recorded at 450 nm using a Tecan Infinite M200 plate reader.

hIL-17A [2] = target: T1, hIL-17A; assay: ELISA on captured hIL-17A
Experimental: as §1

hIL-17A [3] = target: T1, hIL-17A; assay: SPR (ProteOn XPR36), receptor immobilised, hIL-17A as analyte
Experimental: The affinity of hIL-17A binding to hIL17RA-ECD variants was determined by SPR measurements on ProteOn XPR36 (Bio-Rad) instrument. All samples were in HBST buffer (10 mM HEPES with 0.15 M NaCl, 3.4 mM EDTA and 0.005% Tween-20, pH 7.2). A GLC Chip was air initialized and activated with EDC/S-NHS and […] from each of the hIL17RA-ECD variants were diluted in Acetate buffer pH 5.5 and immobilized onto the chip. The measured binding levels for WT hIL17RA-ECD, V3 and V10 were ˜5300RU, 6700RU and 7400RU, respectively. Following blockage of the unbound sites on the chip with Ethanolamine, the chip was flushed with HBST buffer and rotated. The hIL-17A was run at 25 μl/min. for 300 sec at various concentrations (50, 25, 12.5, 6.25 and 3.125 nM) followed by a 10-min. dissociation step. Binding parameters were determined using Langmuir single binding site model using the Bio-Rad's proteOn Manager Software V2.1.2.05.

T1 sequence (Q16552 24-155 limits assumed): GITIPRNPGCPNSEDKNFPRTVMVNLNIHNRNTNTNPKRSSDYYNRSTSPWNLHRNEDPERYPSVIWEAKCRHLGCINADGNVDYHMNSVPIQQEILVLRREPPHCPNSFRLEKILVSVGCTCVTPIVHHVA

binding result (hIL-17A [1]) | IL-17A binding relative to the WT (hIL-17A [2]) | Fold increase in affinity (against WT hIL17RA-ECD) (hIL-17A [3]) | Kd (hIL-17A [3]) | koff (hIL-17A [3]) | kon (hIL-17A [3]) | Binder
binds | – | – | – | – | – | V6 expressed in E. coli (Trx-6xHis-tagged) (receptor, Tested as cleared E. coli lysate; not shown: N-terminal thioredoxin (Trx)-6xHistidine tag of pET32) LRLLDHRALVCSQEGLNCTVKNSTCLDDSWIHPRNLTPSSPKDLQIQLHFAHTQQGDLLPVAHIEWTLQTDASILYLEGAELSVLQLNTNERLCVRFEFLSKLRHHHKRWRFTFSHFVVDPGQEYEVTVHHLPKPIPDGDPNHQSKNFLVPDCEHARMKVTTPCMSSGSLWDPNITVETLEAHQLRVSFTLWNESTHYQILLTSFPHMENHSCFEHMHHIPAPRPEEFHQRSNVTLTLRNLKGCCRHQVQIQPFFSSCLNDCLRHSATVSCPEMPDTPEPIPDYMPLW
binds | – | – | – | – | – | V9 expressed in E. coli (Trx-6xHis-tagged) (receptor, Tested as cleared E. coli lysate; not shown: N-terminal thioredoxin (Trx)-6xHistidine tag of pET32) LRLLDHRAPVCSQEGLNCTVKNSTCLDDSWIHPRNLTPSSPKNLQIQLHFAHTQQGDLLPVAHIEWTLQTDASILYLEGAELSVLQLNTNERLCVKFEFLSKLRHHHKRWRFTFSHFVVDPDQEYEVTVHHLPKPIPDGDPNHQSKNFLVPDCEHARMKVTTPCMSSGSLWDPNITVETLEAHQLRVSFTLWNESTHYQILLTSFPHMENHSCFEHMHHIPAPRPEEFHQRSNVTLTLRNLKGCCRHQVQIQPFFSSCLNDCLRHSATVSCPEMPDTPEPIPDYMPLW
– | 100% | 4.2 fold | 0.624 nM | 0.000115 s⁻¹ | 184000 M⁻¹ s⁻¹ | hIL17RA-ECD variant V10 (Fc fusion, also called V10M; not shown: human IgG1 engineered Fc (reduced ADCC/CDC) from the expression vector) LRLLDHRAPVCSQPGLNCTVKNSTCLDDSWIHPRNLTPSSPKDLQIQLHFAHTQQGDLVPVAHIEWTLQTDASILYLEGAELSVLQLNTNERLCVRFEFLSKLRHHHKRWRFTFSHFVVDPGQEYEVTVHHLPKPIPDGDPNHQSKNFLVPDCEHPRMKVTTPCMSSGSLWDPNITVETLEAHQLRVSFTLWNESTHYQILLTSFPHMENHSCFEHMHHIPAPRPEEFHQRSNVTLTLRNLKGCCRHQVQIQPFFSSCLNDCLRHSATVSCPEMPDTPEPIPDYMPLW
– | 100% | 6 fold | 0.443 nM | 7.51e-05 s⁻¹ | 170000 M⁻¹ s⁻¹ | hIL17RA-ECD variant V3 (Fc fusion, also called hIL-17R-V3; hIL17R-V3; not shown: human IgG1 engineered Fc (reduced ADCC/CDC) from the expression vector) LRLLDHRAPVCSQPGLNCTVKNSTCLDDSWIHPRNLTPSSPKDLQIQLHFAHTQQGDLFPVAHIEWTLQTDASILYLEGAELSVLQLNTNERLCVRFEFLSKLRHHHKRWRFTFSHFVVDPGQEYEVTVHHLPKPIPDGDPNHQSKNFLVPDCEDARMKVTTPCMSSGSLWDPNITVETLEAHQLRVSFTLWNESTHYQILLTSFPHMENHSCFEHMHHIPAPRPEEFHQRSNVTLTLRNLKWCCRHQVQIQPFFSSCLNDCLRHSVTVSCPEMPDTPEPIPDYMPLW

Source: patent publication US20160376343A1 (NATIONAL INSTITUTE FOR BIOTECHNOLOGY IN THE NEGEV, published 2016)
